Measured values reported in patent US20180066015A1, “INHIBITORS OF GROWTH FACTOR ACTIVATION ENZYMES” (Washington University, published 2018).
Where two headings read alike, the source gives them in different places. Primed or numbered codes have the meaning given here. *: point of attachment. Kbt = ketobenzothiazole, c1ccc2sc(*)nc2c1; kt = C-terminal ketothiazole, c1csc(*)n1; kt″ = ketothiazole, c1csc(*)n1

T1: Boc-QAR-AMC
T1 sequence (peptide, N-terminal Boc; C-terminal AMC): QAR

T2: matriptase (Charles Craik, UCSF), recombinant (Homo sapiens (Human)) (UniProt Q9Y5Y6)
T2 sequence: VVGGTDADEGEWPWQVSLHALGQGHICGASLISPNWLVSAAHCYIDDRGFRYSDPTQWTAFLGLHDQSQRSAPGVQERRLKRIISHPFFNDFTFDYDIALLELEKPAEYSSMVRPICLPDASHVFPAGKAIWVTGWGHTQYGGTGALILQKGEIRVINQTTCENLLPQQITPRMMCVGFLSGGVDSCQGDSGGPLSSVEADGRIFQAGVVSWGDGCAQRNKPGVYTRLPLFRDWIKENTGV

T3: matriptase (Charles Craik, UCSF), recombinant (Homo sapiens (Human), UniProt Q9Y5Y6)
T3 sequence: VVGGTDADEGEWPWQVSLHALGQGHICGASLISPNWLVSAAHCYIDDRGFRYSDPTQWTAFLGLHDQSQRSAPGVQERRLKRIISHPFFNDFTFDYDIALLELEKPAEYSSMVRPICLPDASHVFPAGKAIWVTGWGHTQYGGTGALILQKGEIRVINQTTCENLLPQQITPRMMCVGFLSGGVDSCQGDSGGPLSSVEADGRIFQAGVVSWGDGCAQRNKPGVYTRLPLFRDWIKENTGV


Assays:
[1] = target: Ac-Ala-Arg-Leu-P1-ACC, P1 = Gly (G)
[2] = target: Ac-Ala-Arg-Leu-P1-ACC, P1 = L-Ala (A)
[3] = target: Ac-Ala-Arg-Leu-P1-ACC, P1 = L-Asn (N)
[4] = target: Ac-Ala-Arg-Leu-P1-ACC, P1 = L-Asp (D)
[5] = target: Ac-Ala-Arg-Leu-P1-ACC, P1 = L-Gln (Q)
[6] = target: Ac-Ala-Arg-Leu-P1-ACC, P1 = L-Glu (E)
[7] = target: Ac-Ala-Arg-Leu-P1-ACC, P1 = L-His (H)
[8] = target: Ac-Ala-Arg-Leu-P1-ACC, P1 = L-Ile (I)
[9] = target: Ac-Ala-Arg-Leu-P1-ACC, P1 = L-Leu (L)
[10] = target: Ac-Ala-Arg-Leu-P1-ACC, P1 = L-Lys (K)
[11] = target: Ac-Ala-Arg-Leu-P1-ACC, P1 = L-Met (M)
[12] = target: Ac-Ala-Arg-Leu-P1-ACC, P1 = L-Phe (F)
[13] = target: Ac-Ala-Arg-Leu-P1-ACC, P1 = L-Pro (P)
[14] = target: Ac-Ala-Arg-Leu-P1-ACC, P1 = L-Ser (S)
[15] = target: Ac-Ala-Arg-Leu-P1-ACC, P1 = L-Thr (T)
[16] = target: Ac-Ala-Arg-Leu-P1-ACC, P1 = L-Trp (W)
[17] = target: Ac-Ala-Arg-Leu-P1-ACC, P1 = L-Tyr (Y)
[18] = target: Ac-Ala-Arg-Leu-P1-ACC, P1 = L-Val (V)
Boc-QAR-AMC = target: T1, Boc-QAR-AMC
[19] = target: Hepatocyte Growth Factor Activator (HGFA) serine protease domain, N-terminal His-tag, recombinant (Homo sapiens (Human)) (UniProt Q04756)
Factor Xa [20] = assay: chromogenic inhibition assay
recombinant thrombin [21] = assay: chromogenic inhibition assay
[22] = target: Hepatocyte Growth Factor Activator (HGFA) serine protease domain, N-terminal His-tag, recombinant (Homo sapiens (Human)) (UniProt Q04756); assay: fluorogenic inhibition assay
[23] = target: Recombinant human hepsin (4776-SE-010, R&D Systems), activated (human) (UniProt P05981)
[24] = target: T2, matriptase (Charles Craik, UCSF), recombinant (Homo sapiens (Human))
[25] = target: T3, matriptase (Charles Craik, UCSF), …; assay: fluorogenic inhibition assay
Procedure: (§1) Inhibitors (11-pt serial dilutions, 0-20 μM final concentration in reaction) were serially diluted in DMSO (2% DMSO final concentration) and then mixed with either recombinant serine protease domain of HGFA [Z. Han, P. K. Harris, D. E. Jones, R. Chugani, T. Kim, M. Agarwal, W. Shen, S. A. Wildman, J. W. Janetka, Acs Med Chem Lett 2014, 5, 1219-1224], matriptase (Charles Craik, UCSF) or hepsin* (#4776-SE-010, R&D Systems, Minneapolis, Minn.) in black 384 well plates (Corning #3575. Corning, N.Y.). […] The final substrate concentrations for all assays were at the Kₘ for the respective enzymes. Changes in fluorescence (excitation at 380 nm and emission at 460 nm) were measured at room temperature over time in a Biotek Synergy 2 plate reader (Winnoski, Vt.). Using GraphPad Prism version 6.04 software program, (GraphPad Software, San Diego, Calif., www.graphpad.com), a four parameter curve fit was used to determine the inhibitor IC₅₀s from a plot of the mean reaction velocity versus the inhibitor concentration. The IC₅₀ values represent the average of three separate experimental determinations.

[26] = target: T4, Recombinant human hepsin (4776-SE-010, R&D Systems), activated (human, UniProt P05981); assay: fluorogenic inhibition assay
Procedure: as §1

[27] = target: Hepatocyte Growth Factor Activator (HGFA) serine protease domain, N-terminal His-tag, recombinant (Homo sapiens (Human)) (UniProt Q04756); assay: fluorogenic inhibition assay; remark: listed apart in the source
Factor Xa [28] = assay: selectivity inhibition assay
Trypsin = assay: selectivity inhibition assay
recombinant thrombin [29] = assay: selectivity inhibition assay
[30] = target: Hepatocyte Growth Factor Activator (HGFA) serine protease domain, N-terminal His-tag, recombinant (Homo sapiens (Human)) (UniProt Q04756); assay: fluorogenic inhibition assay; remark: listed apart in the source
[31] = target: T3, matriptase (Charles Craik, UCSF), …; assay: fluorogenic inhibition assay; remark: listed apart in the source
Procedure: as §1
(§2) Fluorescent inhibitor and chromogenic proteolytic assays were performed in general accordance with the procedures described in Example 4 for compounds prepared in Examples 5 and 6.

[32] = target: T4, Recombinant human hepsin (4776-SE-010, …); assay: fluorogenic inhibition assay; remark: listed apart in the source
Procedure: as §1, §2

Molecule | IC50 of enzyme inhibition [19] [nM] | Ki (Factor Xa [20]) [nM] | Ki (recombinant thrombin [21]) [nM] | Ki [22] [nM] | IC50 of enzyme inhibition [23] [nM] | IC50 of enzyme inhibition [24] [nM] | Ki [25] [nM] | Ki [26] [nM] | further results
Recombinant human hepsin (4776-SE-010, R&D Systems), activated (from UniProt P05981) (enzyme) |  |  |  |  |  |  |  |  | % activity, P1 position (Ac-Ala-Arg-Leu-Arg-ACC): 100%; % activity, P1 position [1]: 0.07%; % activity, P1 position [2]: 0.49%; % activity, P1 position [3]: 0%; % activity, P1 position [4]: 0%; % activity, P1 position [5]: 0%; % activity, P1 position [6]: 0.13%; % activity, P1 position [7]: 0.17%; % activity, P1 position [8]: 0.08%; % activity, P1 position [9]: 0.03%; % activity, P1 position [10]: 2.34%; % activity, P1 position [11]: 0%; % activity, P1 position [12]: 0.12%; % activity, P1 position [13]: 0.04%; % activity, P1 position [14]: 0.2%; % activity, P1 position [15]: 0.45%; % activity, P1 position [16]: 0.7%; % activity, P1 position [17]: 0.3%; % activity, P1 position [18]: 0%; Km of fluorogenic substrate (Boc-QAR-AMC): 156 µM
Ac-KQFR(SEQ ID NO: 4)-kt (peptide) | 470 | 78.8 | > 20000 | 58 |  |  |  |  | 
Ac-SRLR-kt (SMILES CC(=O)N[C@@H](CO)C(=O)N[C@@H](CCCNC(=N)N)C(=O)N[C@@H](CC(C)C)C(=O)N[C@@H](CCCNC(=N)N)C(=O)c1nccs1) [Ac-SRLR(SEQ ID NO: 15)-kt] | 303 |  |  | 24 | 5 | 24 | 5.8 | 0.68 | 
Ac-WQLR-kt (SMILES CC(=O)N[C@@H](Cc1c[nH]c2ccccc12)C(=O)N[C@@H](CCC(N)=O)C(=O)N[C@@H](CC(C)C)C(=O)N[C@@H](CCCNC(=N)N)C(=O)c1nccs1) [Ac-WQLR(SEQ ID NO: 3)-kt] | 471 |  |  | 65 | 1 | 49 | 32.4 | 0.21 | 
Ac-SHLR-kt (SMILES CC(=O)N[C@@H](CO)C(=O)N[C@@H](Cc1c[nH]cn1)C(=O)N[C@@H](CC(C)C)C(=O)N[C@@H](CCCNC(=N)N)C(=O)c1nccs1) [Ac-SHLR(SEQ ID NO: 11)-kt] | 1800 |  |  | 332 | 5 | 560 | 104 | 0.6 | 
Ac-KQLR-{kt″} (SMILES CC(=O)N[C@@H](CCCCN)C(=O)N[C@@H](CCC(N)=O)C(=O)N[C@@H](CC(C)C)C(=O)N[C@@H](CCCNC(=N)N)C(=O)c1nccs1) [Ac-KQLR(SEQ ID NO: 1)-kt] | 445 | 170 | > 20000 | 70 | 2 | 5 | 1.6 | 0.19 | Ki [27]: 53 nM
Ac-RQLR-kt (SMILES CC(=O)N[C@@H](CCCNC(=N)N)C(=O)N[C@@H](CCC(N)=O)C(=O)N[C@@H](CC(C)C)C(=O)N[C@@H](CCCNC(=N)N)C(=O)c1nccs1) [Ac-RQLR(SEQ ID NO: 6)-kt] | 270 | 8.1 | > 20000 | 60 | 1 | 1 | 0.32 | 0.28 | 
Ac-KQLR-Kbt (SMILES CC(=O)N[C@@H](CCCCN)C(=O)N[C@@H](CCC(N)=O)C(=O)N[C@@H](CC(C)C)C(=O)N[C@@H](CCCNC(=N)N)C(=O)c1nc2ccccc2s1) [Ac-KQLR(SEQ ID NO: 1)-Kbt] |  |  |  | 30 |  |  |  |  | Ki (Factor Xa [28]): 129 nM; Ki (Trypsin): 0.24 nM; Ki (recombinant thrombin [29]): > 20000 nM; fold change of potency against thiazole 5 [30]: 2 fold; Ki [31]: 0.55 nM; Ki [32]: 0.09 nM
Ac-SKLR-kt (SMILES CC(=O)N[C@@H](CO)C(=O)N[C@@H](CCCCN)C(=O)N[C@@H](CC(C)C)C(=O)N[C@@H](CCCNC(=N)N)C(=O)c1nccs1) [Ac-SKLR(SEQ ID NO: 10)-kt] | 560 | 3060 | > 20000 | 81 |  | 48 | 58 | 1.2 | 
Ac-SKFR-kt (SMILES CC(=O)N[C@@H](CO)C(=O)N[C@@H](CCCCN)C(=O)N[C@@H](Cc1ccccc1)C(=O)N[C@@H](CCCNC(=N)N)C(=O)c1nccs1) [Ac-SKFR(SEQ ID NO: 13)-kt] | 520 | 530 | > 2000 | 57 | 51 | 34 | 3.03 | 8.5 | 
matriptase (Charles Craik, UCSF), recombinant (enzyme) VVGGTDADEGEWPWQVSLHALGQGHICGASLISPNWLVSAAHCYIDDRGFRYSDPTQWTAFLGLHDQSQRSAPGVQERRLKRIISHPFFNDFTFDYDIALLELEKPAEYSSMVRPICLPDASHVFPAGKAIWVTGWGHTQYGGTGALILQKGEIRVINQTTCENLLPQQITPRMMCVGFLSGGVDSCQGDSGGPLSSVEADGRIFQAGVVSWGDGCAQRNKPGVYTRLPLFRDWIKENTGV |  |  |  |  |  |  |  |  | Km of fluorogenic substrate (Boc-QAR-AMC): 93 µM
Ac-WRLR-kt (SMILES CC(=O)N[C@@H](Cc1c[nH]c2ccccc12)C(=O)N[C@@H](CCCNC(=N)N)C(=O)N[C@@H](CC(C)C)C(=O)N[C@@H](CCCNC(=N)N)C(=O)c1nccs1) [Ac-WRLR(SEQ ID NO: 9)-kt] | 275 |  |  | 21 | 0.3 | 31 | 5.5 | 0.21 | 
Ac-WKLR-kt (SMILES CC(=O)N[C@@H](Cc1c[nH]c2ccccc12)C(=O)N[C@@H](CCCCN)C(=O)N[C@@H](CC(C)C)C(=O)N[C@@H](CCCNC(=N)N)C(=O)c1nccs1) [Ac-WKLR(SEQ ID NO: 12)-kt] | 320 |  |  | 56 | 4 | 97 | 8.6 | 0.55 | 
